Reference: patent US20200332015A1 (NAMAB THERAPEUTICS, published 2020)

What was measured:
[1] = target: T1, recombinant human CD137 extracellular domain (Peprotech, cat. 310-15-1MG) (human, UniProt Q07011 24-186); assay: SPR T200, Morrison format captured, ECD analyte
T1 construct: also called human CD137 ECD; CD137 ECD
Description: (§1) Affinity to PDL1 of the different species was determined by SPR measurements using a Biacore T200 device (GE Healthcare). An antibody specific for the Fc region of human IgGs was immobilized on a sensor chip (CM5 sensor chip, GE Healthcare) by amine-coupling. For all formats, with the exception of the Fc containing Morrison formats, PDL1-Fc chimeric protein from different species were captured by the immobilized antibody. Three-fold serial dilutions of the molecules specific for PDL1 (0.12-90 nM) were injected into the flow cells for three minutes and dissociation was monitored for 10 minutes. After each injection cycle, surfaces were regenerated with one injection of a 3 M MgCl₂ solution. The apparent dissociation (kd) and association (kₐ) rate constants and the apparent dissociation equilibrium constant (KD) were calculated using one-to-one Langmuir binding model. Affinity to CD137 of the different species was determined using the identical setup as for PDL1 with the exception that CD137-Fc chimeric proteins from different species were captured by the immobilized antibody.
(§2) The Fc containing formats were directly captured by the antibody specific for the Fc region of human IgGs. Two-fold serial dilutions of PDL1 extracellular domain or CD137 extracellular domain ranging from 90 to 0.35 nM were tested for binding to the IgG captured on the biosensor chip. After each injection cycle, surfaces were regenerated with one injection of a 3 M MgCl2 solution.

[2] = target: T2, human PDL1 extracellular domain (human, UniProt Q9NZQ7 19-238); assay: SPR T200, Morrison format captured, ECD analyte
T2 construct: extracellular domain; Analyte for the Fc containing Morrison formats
Description: as §1, §2

[3] = target: T3, human CD137 expressed on Jurkat cells (human, UniProt Q07011 24-255); assay: cell-based or functional assay
[4] = target: T4, mouse serum albumin (mouse, UniProt P07724 25-608); assay: SPR T200, SA coupled to chip, pH 5.5
T4 construct: also called mouse SA; MSA
Description: (§3) Affinity of molecules to serum albumin (SA) of the different species was determined by SPR measurements using a Biacore T200 device (GE Healthcare). SA was directly coupled to a CM5 sensor chip (GE Healthcare) using amine coupling chemistry. […] The assay was run in a 1×PBS-Tween buffer at pH 5.5.

[5] = target: T5, human serum albumin (human, UniProt P02768 25-609); assay: SPR T200, SA coupled to chip, pH 5.5
T5 construct: also called human SA; HSA
Description: as §3

[6] = target: human PDL1-Fc chimeric protein (human, UniProt Q9NZQ7 19-238, limits assumed); assay: SPR T200, antigen-Fc captured, molecule as analyte
Description: as §1

[7] = target: T6, Fc tagged human CD137 (R&D Systems, cat. 838-4B-100) (human, UniProt Q07011 24-186); assay: SPR T200, antigen-Fc captured, molecule as analyte
T6 construct: also called CD137 Fc chimera; human CD137-Fc chimeric protein
Description: as §1

[8] = target: T3, human CD137 expressed on Jurkat cells; assay: cell-based or functional assay; remark: listed apart in the source
[9] = target: T3, human CD137 expressed on Jurkat cells; assay: cell-based or functional assay; remark: listed apart in the source
[10] = target: T7, mouse Fc-tagged mouse CD137 (R&D Systems, cat. 937-4B-050) (mouse, UniProt P20334 24-187); assay: SPR T200, antigen-Fc captured, molecule as analyte
T7 construct: also called mouse CD137-Fc chimeric protein
T7 sequence (looked up): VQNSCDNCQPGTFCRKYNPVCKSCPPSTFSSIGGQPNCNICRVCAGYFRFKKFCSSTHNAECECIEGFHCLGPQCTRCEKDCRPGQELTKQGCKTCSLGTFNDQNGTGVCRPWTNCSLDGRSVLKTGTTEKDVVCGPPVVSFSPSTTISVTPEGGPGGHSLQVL
Description: as §1

[11] = target: T8, cynomolgus monkey Fc-tagged CD137 (R&D Systems, cat. 9324-4B-100) (cynomolgus monkey, UniProt A9YYE7 24-186); assay: SPR T200, antigen-Fc captured, molecule as analyte
T8 construct: also called cynomolgus CD137-Fc chimeric protein
T8 sequence (A9YYE7 entry or part of it): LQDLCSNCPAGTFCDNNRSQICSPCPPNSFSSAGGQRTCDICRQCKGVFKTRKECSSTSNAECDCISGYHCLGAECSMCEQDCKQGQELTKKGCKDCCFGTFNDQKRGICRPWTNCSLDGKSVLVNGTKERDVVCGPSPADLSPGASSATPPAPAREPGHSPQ
Description: as §1

[12] = target: T3, human CD137 expressed on Jurkat cells; assay: cell-based or functional assay; remark: listed apart in the source

Binder | max. activation, NF-kB reporter gene, CHO-PD-L1, 24h [3] [%] | rel. IC50 (urelumab/test), NF-kB reporter gene, CHO-PD-L1, 24h [3] [ratio] | max. activation, HCC827 +IFNg, 24h [3] [%] | rel. IC50 (urelumab/test), HCC827 +IFNg, 24h [3] [ratio] | Kd [4] [nM] | koff [4] [s⁻¹] | kon [4] [M⁻¹ s⁻¹] | Kd [5] [nM] | koff [5] [s⁻¹] | kon [5] [M⁻¹ s⁻¹] | Kd [6] [nM] | koff [6] [s⁻¹] | kon [6] [M⁻¹ s⁻¹] | Kd [7] [nM] | koff [7] [s⁻¹] | kon [7] [M⁻¹ s⁻¹] | other results
PRO1059 (33-03-G02 IgG1 LC with 38_02_A04 sc01 scFv, PDL1/CD137(scFv) silent Morrison) (bispecific antibody, IgG1 with scFv fused to the light chain; also called Morrison-L) light: DIQMTQSPSSLSASVGDRVTITCQASQSINDYLAWYQQKPGKAPKLLIYKASTLASGVPSRFSGSGSGTDFTLTISSLQPEDFATYYCQQGYIITDIDNVFGTGTKVTVLGTVAAPSVFIFPPSDEQLKSGTASVVCLLNNFYPREAKVQWKVDNALQSGNSQESVTEQDSKDSTYSLSSTLTLSKADYEKHKVYACEVTHQGLSSPVTKSFNRGECGGGGSGGGGSIQMTQSPSSLSASVGDRVTITCQASQSINNVLAWYQQKPGKAPKLLIYRASTLASGVPSRFSGSGSGTDFTLTISSLQPEDFATYYCQSSYGNYGDFGTGTKVTVLGGGGGSGGGGSGGGGSGGGGSQVQLQESGPGLVKPSETLSLTCKVSGFSFSNSYWICWIRQPPGKGLEWIGCTFVGSSDSTYYANWAKGRVTISVDSSKNQFSLKLSSVTAADTAVYYCARHPSDAVYGYANNLWGQGTLVTVSS heavy: QVQLQESGPGLVKPSETLSLTCKVSGFSFSSGYDMCWIRQPPGKGLEWIGCVVAGSVDITYYASWAKGRVTISVDSSKNQFSLKLSSVTAADTAVYYCARKDAYSDAFNLWGQGTLVTVSSASTKGPSVFPLAPSSKSTSGGTAALGCLVKDYFPEPVTVSWNSGALTSGVHTFPAVLQSSGLYSLSSVVTVPSSSLGTQTYICNVNHKPSNTKVDKRVEPKSCDKTHTCPPCPAPEAAGGPSVFLFPPKPKDTLMISRTPEVTCVVVDVSHEDPEVKFNWYVDGVEVHNAKTKPREEQYNSTYRVVSVLTVLHQDWLNGKEYKCKVSNKALGAPIEKTISKAKGQPREPQVYTLPPSREEMTKNQVSLTCLVKGFYPSDIAVEWESNGQPENNYKTTPPVLDSDGSFFLYSKLTVDKSRWQQGNVFSCSVMHEALHNHYTQKSLSLSPGK | 189 | 0.09 | – | – | – | – | – | – | – | – | – | – | – | – | – | – | Kd [1]: 2.3 nM; koff [1]: 0.00042 s⁻¹; kon [1]: 180000 M⁻¹ s⁻¹; Kd [2]: 0.056 nM; koff [2]: 6.5e-05 s⁻¹; kon [2]: 1.2e+06 M⁻¹ s⁻¹
PRO1186 (37-20-B03 sc01 / 38-02-A04 sc01 / 23-13-A01 sc03, scDb-scFv) (other, Trispecific scDb-scFv) DIQMTQSPSSLSASVGDRVTITCQASQSIGTYLAWYQQKPGKAPKLLIYRAFILASGVPSRFSGSGSGTDFTLTISSLQPEDFATYYCQSNFYSDSTTIGPNAFGTGTKVTVLGGGGGSQVQLQESGPGLVKPSETLSLTCKVSGFSFSNSYWICWIRQPPGKGLEWIGCTFVGSSDSTYYANWAKGRVTISVDSSKNQFSLKLSSVTAADTAVYYCARHPSDAVYGYANNLWGQGTLVTVSSGGGGSGGGGSGGGGSGGGGSIQMTQSPSSLSASVGDRVTITCQASQSINNVLAWYQQKPGKAPKLLIYRASTLASGVPSRFSGSGSGTDFTLTISSLQPEDFATYYCQSSYGNYGDFGTGTKVTVLGGGGGSQVQLQESGPGLVKPSETLSLTCKVSGFSFNSDYWIYWIRQPPGKGLEWIGSIYGGSSGNTQYASWAQGRVTISVDSSKNQFSLKLSSVTAADTAVYYCARGYVDYGGATDLWGQGTLVTVSSGGGGSGGGGSVVMTQSPSSLSASVGDRVTITCQASQIISSRSAWYQQKPGQPPKLLIYQASKLASGVPSRFSGSGSGTDFTLTISSLQPEDFATYYCQCTYIDSNFGAFGGGTKLTVLGGGGGSGGGGSGGGGSGGGGSEVQLVESGGGLVQPGGSLRLSCAASGFSFSSSYWICWVRQAPGKGLEWVGCVFTGDGTTYYASWAKGRFTISRDNSKNTVYLQMNSLRAEDTATYFCARPVSVYYYGMDLWGQGTLVTVSS | 152 | 0.97 | 129 | 1.88 | 43 | 0.0095 | 220000 | 2.9 | 0.00072 | 250000 | 0.0037 | 2.3e-05 | 6.2e+06 | 2.6 | 0.0005 | 190000 | –
PRO1057 (38_02_A04 sc01 scDb-i/33-03-G02 sc01 scDb-o/mxr HSA (23-13-A01-sc03, sk17sh4)) (other, Trispecific scDb-scFv) DIQMTQSPSSLSASVGDRVTITCQASQSINDYLAWYQQKPGKAPKLLIYKASTLASGVPSRFSGSGSGTDFTLTISSLQPEDFATYYCQQGYIITDIDNVFGTGTKVTVLGGGGGSQVQLQESGPGLVKPSETLSLTCKVSGFSFSNSYWICWIRQPPGKGLEWIGCTFVGSSDSTYYANWAKGRVTISVDSSKNQFSLKLSSVTAADTAVYYCARHPSDAVYGYANNLWGQGTLVTVSSGGGGSGGGGSGGGGSGGGGSIQMTQSPSSLSASVGDRVTITCQASQSINNVLAWYQQKPGKAPKLLIYRASTLASGVPSRFSGSGSGTDFTLTISSLQPEDFATYYCQSSYGNYGDFGTGTKVTVLGGGGGSQVQLQESGPGLVKPSETLSLTCKVSGFSFSSGYDMCWIRQPPGKGLEWIGCVVAGSVDITYYASWAKGRVTISVDSSKNQFSLKLSSVTAADTAVYYCARKDAYSDAFNLWGQGTLVTVSSGGGGSGGGGSVVMTQSPSSLSASVGDRVTITCQASQIISSRSAWYQQKPGQPPKLLIYQASKLASGVPSRFSGSGSGTDFTLTISSLQPEDFATYYCQCTYIDSNFGAFGGGTKLTVLGGGGGSGGGGSGGGGSGGGGSEVQLVESGGGLVQPGGSLRLSCAASGFSFSSSYWICWVRQAPGKGLEWVGCVFTGDGTTYYASWAKGRFTISRDNSKNTVYLQMNSLRAEDTATYFCARPVSVYYYGMDLWGQGTLVTVSS | 663 | 0.1 | 135 | 0.46 | 66 | 0.0085 | 130000 | 2.8 | 0.00067 | 240000 | 0.11 | 0.00017 | 1.6e+06 | 5.1 | 0.0007 | 140000 | EC50 NFkB-luciferase, CHO-PDL1 cells, 24 h, + HBA (so in the source) [8]: 0.792 µg/mL; Top of curve fit, NFkB-luciferase, CHO-PDL1 cells, 24 h, + HBA (so in the source) [8]: 745; rel. IC50 (urelumab/test), HCC827 -IFNg, 24h [3]: 0.62 ratio; EC50 NFkB-luciferase, HCC827 with IFNy stimulation, +HSA [9]: 0.115 µg/mL; EC50 NFkB-luciferase, HCC827 without IFNy stimulation, +HSA [9]: 0.0766 µg/mL; Kd [10]: 1200 nM; koff [10]: 0.085 s⁻¹; kon [10]: 69000 M⁻¹ s⁻¹; Kd [11]: 4.8 nM; koff [11]: 0.00079 s⁻¹; kon [11]: 160000 M⁻¹ s⁻¹; EC50 NFkB-luciferase, CHO-PDL1 cells, 6 h, + HSA [12]: 0.112 µg/mL; Top of curve fit, NFkB-luciferase, CHO-PDL1 cells, 6 h, + HSA [12]: 463
PRO963 (38_02_A04 sc01 scDb-i/33-03-G02 sc01 scDb-o/19-01-H04-sc03 scFv) (other, Trispecific scDb-scFv (PDL1 x CD137 x SA); also called PRO096 (= PRO1051)) DIQMTQSPSSLSASVGDRVTITCQASQSINDYLAWYQQKPGKAPKLLIYKASTLASGVPSRFSGSGSGTDFTLTISSLQPEDFATYYCQQGYIITDIDNVFGTGTKVTVLGGGGGSQVQLQESGPGLVKPSETLSLTCKVSGFSFSNSYWICWIRQPPGKGLEWIGCTFVGSSDSTYYANWAKGRVTISVDSSKNQFSLKLSSVTAADTAVYYCARHPSDAVYGYANNLWGQGTLVTVSSGGGGSGGGGSGGGGSGGGGSIQMTQSPSSLSASVGDRVTITCQASQSINNVLAWYQQKPGKAPKLLIYRASTLASGVPSRFSGSGSGTDFTLTISSLQPEDFATYYCQSSYGNYGDFGTGTKVTVLGGGGGSQVQLQESGPGLVKPSETLSLTCKVSGFSFSSGYDMCWIRQPPGKGLEWIGCVVAGSVDITYYASWAKGRVTISVDSSKNQFSLKLSSVTAADTAVYYCARKDAYSDAFNLWGQGTLVTVSSGGGGSGGGGSIQMTQSPSSLSASVGDRVTITCQSSESVYSNNQLSWYQQKPGQPPKLLIYDASDLASGVPSRFSGSGSGTDFTLTISSLQPEDFATYYCAGGFSSSSDTAFGGGTKLTVLGGGGGSGGGGSGGGGSGGGGSEVQLVESGGGLVQPGGSLRLSCAASGFSLSSNAMGWVRQAPGKGLEYIGIISVGGFTYYASWAKGRFTISRDNSKNTVYLQMNSLRAEDTATYFCARDRHGGDSSGAFYLWGQGTLVTVSS | – | – | – | – | – | – | – | 2.8 | 0.0003 | 110000 | 0.066 | 0.00013 | 2e+06 | 3 | 0.00062 | 200000 | binding result [4]: no binding
